In one assay the target is huLTBP1 proTGFβ1 (Homo sapiens, UniProt P01137+Q14766). Kind of assay: Octet (BLI) binding, IgG captured on AHC tips, antigen at 100 nM. The following applies: Table 9, cycle 3, IgG1-agly; for Hu LTBP1-proTGFβ1 Kon: 1:1 fit; for Hu LTBP1-proTGFβ1 Koff: 5-minute dissociation. On the procedure:
(§1) Suitable methods for in vitro binding assays to determine the parameters of binding kinetics include Bio-layer Interferometry (BLI)-based assays such as Octet, and surface plasmon resonance (SPR)-based assays, such as Biacore systems (see, for example: biophysics.bioc.cam.ac.uk/wp-content/uploads/2011/02/Biacore_assay_handbook.pdf).
(§2) The affinity of SR-AB10, SR-AB2 and SR-AB13 was measured by Octet assay. The protocol used to measure the affinity of the antibodies to the complexes provided herein is summarized below.
(§3) • 96 well black polypropylene plates • AHC Octet tips (anti-human IgG Fc capture tips) (FortdBio) • 10× kinetics buffer (FortdBio) (diluted to 1× in PBS) • reiner Bio-One 96-Well Half Area Microplates (VWR cat #82050-044) Procedure:
(§4) Notes: The volume within each well during an Octet experiment is 100 uL.
(§5) A shake speed of 1000 rpm is used for all assay steps.
(§6) Pre-Wet Tips: • Biosensors must be pre-wet in 1× kinetics buffer (lx KB) for at least 10 minutes before starting an experiment. This can be done inside the Octet or on the bench.
(§7) Loading: • Tips are baselined in 1× KB for 1 minute before loading. • AHC tips are loaded with antibody at a concentration of 1 μg/mL (˜7 nM) for 3 minutes. A limit is set so that loading will stop when any one sensor reaches a response of 1 nanometer. • Tips are baselined in buffer for 1 minute after loading. The antibody should not dissociate from the tips during this time.
(§8) Antigen Association: • TGFβ1 in complex with various presentation molecules was associated to the immobilized antibodies at a single concentration of 100 nM in 1× KB.
(§9) Antibody Dissociation: • Dissociation in 1×KB was performed for 3 minutes.
(§10) Data Analysis using ForteBio Data analysis software 8.2: • Processing: align Y axis to last 5 seconds of baseline, perform inter-step correction with align to dissociation, and perform Savitzky-Golay filtering. • Analysis: 1:1 fitting model is utilized. Fitting is local and full. […] Results:
(§11) LTBP complex-specific antibodies from the first round of affinity maturation/optimization (SR-AB14, SR-AB16, SR-AB17, SR-AB18, SR-AB19) were selected for a second round of affinity maturation/optimization (i.e., CDR-H3 mutagenesis as described herein) and particular progeny antibodies (SR-AB20, SR-AB21, SR-AB22, SR-AB23, SR-AB24, SR-AB25, SR-AB26, SR-AB27, SR-AB28, and SR-AB29) were assessed for their ability to bind various proTGFβl constructs. Binding affinities of the optimized antibodies were measured by Octet against human LTBP1-proTGFβI, human LTBP3-proTGFb1, mouse LTBP1-proTGFβ1, mouse LTBP3-proTGFb1, and GARP-proTGFβl complexes, essentially as described in Example 6. In brief, test antibodies were immobilized to the surface of anti-human Fc capture biosensors (AHC) (ForteBio®) and binding was then tested against the various TGFβ1 complexes at a single concentration of 100 nM to assess binding affinities. The antigens were allowed to associate for 3 minutes followed by a 5-minute dissociation. Kinetics buffer (ForteBio®) was used throughout the experiment, and KD was determined using a 1:1 fitting model for each antibody antigen pair.
Binding affinities of the optimized antibodies were measured by Octet against human LTBP1-proTGFβ1, human LTBP3-proTGFβ1, mouse LTBP1-proTGFβ1, mouse LTBP3-proTGFβ1, and GARP-proTGFβ1 complexes, essentially as described in Example 6. In brief, test antibodies were immobilized to the surface of anti-human Fc capture biosensors (AHC) (ForteBio®) and binding was then tested against the various TGFβ1 complexes at a single concentration of 100 nM to assess binding affinities. The antigens were allowed to associate for 3 minutes followed by a 5-minute dissociation. Kinetics buffer (ForteBio®) was used throughout the experiment, and KD was determined using a 1:1 fitting model for each antibody antigen pair. […]
A general note: In BLI a coated tip is dipped into the sample, and binding shifts an interference pattern.

The target of the next assay is huLTBP3 proTGFβ1 (Homo sapiens, UniProt P01137+Q9NS15). The assay is described as above. The note with it: Table 9, cycle 3, IgG1-agly; for Hu LTBP3-proTGFβ1 Kon: 1:1 fit; for Hu LTBP3-proTGFβ1 Koff: 5-minute dissociation. On the procedure: as §1, §2, §3, §4, §5, §6, §7, §8, §9, §10, §11
Sequence of huLTBP3 proTGFβ1 (P01137 30-390): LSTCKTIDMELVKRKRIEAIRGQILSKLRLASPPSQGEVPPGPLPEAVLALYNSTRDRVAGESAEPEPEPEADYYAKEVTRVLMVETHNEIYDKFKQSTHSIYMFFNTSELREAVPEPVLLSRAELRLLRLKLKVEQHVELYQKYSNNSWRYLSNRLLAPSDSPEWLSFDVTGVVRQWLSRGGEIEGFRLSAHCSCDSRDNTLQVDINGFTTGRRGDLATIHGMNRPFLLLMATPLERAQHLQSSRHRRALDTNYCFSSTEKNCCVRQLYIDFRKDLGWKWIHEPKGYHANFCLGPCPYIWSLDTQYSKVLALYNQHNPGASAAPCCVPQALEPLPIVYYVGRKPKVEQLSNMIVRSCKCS
Sequence of huLTBP3 proTGFβ1 (Q9NS15 44-1303): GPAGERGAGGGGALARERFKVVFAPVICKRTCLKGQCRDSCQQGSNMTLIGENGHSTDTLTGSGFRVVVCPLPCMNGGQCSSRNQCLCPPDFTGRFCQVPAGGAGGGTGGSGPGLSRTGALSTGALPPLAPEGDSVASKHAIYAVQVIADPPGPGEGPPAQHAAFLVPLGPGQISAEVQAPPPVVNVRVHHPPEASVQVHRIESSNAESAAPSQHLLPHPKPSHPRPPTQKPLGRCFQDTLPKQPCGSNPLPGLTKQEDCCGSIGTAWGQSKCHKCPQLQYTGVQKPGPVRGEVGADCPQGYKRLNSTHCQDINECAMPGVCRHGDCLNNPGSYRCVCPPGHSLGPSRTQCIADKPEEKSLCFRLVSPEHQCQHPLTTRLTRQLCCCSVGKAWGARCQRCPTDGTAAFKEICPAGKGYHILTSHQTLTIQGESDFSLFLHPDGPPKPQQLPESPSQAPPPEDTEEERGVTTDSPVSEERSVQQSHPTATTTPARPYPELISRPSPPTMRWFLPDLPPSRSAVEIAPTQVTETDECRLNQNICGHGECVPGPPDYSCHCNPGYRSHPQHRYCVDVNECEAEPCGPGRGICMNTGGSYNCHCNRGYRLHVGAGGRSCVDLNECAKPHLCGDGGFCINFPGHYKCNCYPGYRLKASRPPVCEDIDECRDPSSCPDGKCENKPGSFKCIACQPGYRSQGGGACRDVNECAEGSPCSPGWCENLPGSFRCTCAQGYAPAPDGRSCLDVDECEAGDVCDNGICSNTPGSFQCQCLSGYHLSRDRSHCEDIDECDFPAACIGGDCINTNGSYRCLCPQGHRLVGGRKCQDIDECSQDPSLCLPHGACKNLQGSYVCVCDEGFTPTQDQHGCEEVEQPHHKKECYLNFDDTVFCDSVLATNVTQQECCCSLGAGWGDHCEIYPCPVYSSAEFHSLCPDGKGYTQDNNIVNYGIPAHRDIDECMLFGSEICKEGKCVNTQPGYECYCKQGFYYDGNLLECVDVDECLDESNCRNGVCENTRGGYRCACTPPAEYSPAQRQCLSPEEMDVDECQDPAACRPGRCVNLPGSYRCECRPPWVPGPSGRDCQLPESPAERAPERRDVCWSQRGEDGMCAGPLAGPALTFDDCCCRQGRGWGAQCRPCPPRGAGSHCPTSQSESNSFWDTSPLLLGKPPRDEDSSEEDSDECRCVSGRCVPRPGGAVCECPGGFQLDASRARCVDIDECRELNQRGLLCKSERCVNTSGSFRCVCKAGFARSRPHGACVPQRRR
Binding affinities of the optimized antibodies were measured by Octet against human LTBP1-proTGFβ1, human LTBP3-proTGFβ1, mouse LTBP1-proTGFβ1, mouse LTBP3-proTGFβ1, and GARP-proTGFβ1 complexes, essentially as described in Example 6. In brief, test antibodies were immobilized to the surface of anti-human Fc capture biosensors (AHC) (ForteBio®) and binding was then tested against the various TGFβ1 complexes at a single concentration of 100 nM to assess binding affinities. The antigens were allowed to associate for 3 minutes followed by a 5-minute dissociation. Kinetics buffer (ForteBio®) was used throughout the experiment, and KD was determined using a 1:1 fitting model for each antibody antigen pair.

Assay [1] concerns proTGFβ1 presented by endogenous LTBP1/3 in LN229 cells. Briefly: Endogenous LTBP caga assay: LN229 cells transfected with human proTGFβ1 only, CAGA12 luciferase reporter cells. It is filed as cell-based. The note with it: Table 20: protocol of Example 10 with Fabs (RefAb also as hIgG4), assay format not stated.
Sequence of proTGFβ1 presented by endogenous LTBP1/3 in LN229 cells (P01137 30-390): as the sequence (P01137 30-390) above

Sequence of huLTBP1 proTGFβ1 (P01137 30-390): as above
Sequence of huLTBP1 proTGFβ1 (Q14766 347-1721 limits assumed): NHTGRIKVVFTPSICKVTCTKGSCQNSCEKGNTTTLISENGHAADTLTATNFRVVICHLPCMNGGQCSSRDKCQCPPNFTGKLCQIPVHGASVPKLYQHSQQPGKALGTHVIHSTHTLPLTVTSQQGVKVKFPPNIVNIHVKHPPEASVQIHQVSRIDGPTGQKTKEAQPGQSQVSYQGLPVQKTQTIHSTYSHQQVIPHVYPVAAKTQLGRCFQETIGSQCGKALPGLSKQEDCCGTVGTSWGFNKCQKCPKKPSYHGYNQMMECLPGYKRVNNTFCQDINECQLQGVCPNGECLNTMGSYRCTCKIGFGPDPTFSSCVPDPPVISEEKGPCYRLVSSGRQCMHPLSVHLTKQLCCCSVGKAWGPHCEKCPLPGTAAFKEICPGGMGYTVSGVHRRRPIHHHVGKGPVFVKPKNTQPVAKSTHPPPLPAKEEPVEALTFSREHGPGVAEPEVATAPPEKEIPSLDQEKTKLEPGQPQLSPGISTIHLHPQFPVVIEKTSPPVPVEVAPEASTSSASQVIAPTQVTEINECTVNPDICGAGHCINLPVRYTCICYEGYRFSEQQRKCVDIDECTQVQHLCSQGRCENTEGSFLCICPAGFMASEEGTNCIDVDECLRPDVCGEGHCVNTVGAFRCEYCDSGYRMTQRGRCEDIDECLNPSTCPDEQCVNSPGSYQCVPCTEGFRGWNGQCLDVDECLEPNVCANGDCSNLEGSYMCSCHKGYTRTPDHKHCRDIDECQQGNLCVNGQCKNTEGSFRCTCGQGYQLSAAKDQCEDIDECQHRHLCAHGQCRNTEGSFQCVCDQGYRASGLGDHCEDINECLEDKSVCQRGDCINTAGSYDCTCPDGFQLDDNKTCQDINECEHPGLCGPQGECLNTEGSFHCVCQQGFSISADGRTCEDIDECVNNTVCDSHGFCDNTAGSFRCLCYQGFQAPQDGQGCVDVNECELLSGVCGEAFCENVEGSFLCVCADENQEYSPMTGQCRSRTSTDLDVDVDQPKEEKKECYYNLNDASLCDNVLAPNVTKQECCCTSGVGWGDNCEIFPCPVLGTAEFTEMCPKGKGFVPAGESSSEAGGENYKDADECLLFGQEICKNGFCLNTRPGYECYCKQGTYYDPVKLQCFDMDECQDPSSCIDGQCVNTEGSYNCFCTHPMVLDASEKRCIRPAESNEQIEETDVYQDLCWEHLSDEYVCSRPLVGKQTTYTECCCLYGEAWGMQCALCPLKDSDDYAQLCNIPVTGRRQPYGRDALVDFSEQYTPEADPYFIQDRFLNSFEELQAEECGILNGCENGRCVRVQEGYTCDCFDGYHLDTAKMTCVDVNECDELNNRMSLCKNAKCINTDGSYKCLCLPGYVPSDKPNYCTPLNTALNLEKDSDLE

B1: SR-AB44: cycle 3 light chain-optimized antibody, lineage SR-AB23; CDRs SEQ ID NO: 178-183 (antibody, V domains shown)
VH: QVQLVESGGGVVQPGRSLRLSCAASGFTFRSYVMHWVRQAPGKGLEWVAVISHEGSLKYYADSVKGRFTISRDNSKNTLYLQMNSLRAEDTAVYYCARPRIAARRGGFGYWGQGTLVTVSS
VL: NFMLTQPHSVSESPGKTVTISCTRSHGNIDDNYVQWYQQRPGSSPTTVIYEDNVRPSGVPDRFSGSIDSSSNSASLTISGLKTEDEADYYCQSYDSDNQLVVFGGGTKLTVL
B1: in the assay with huLTBP1 proTGFβ1, the “Hu LTBP1-proTGFβ1 Kon” value worked out at 280000 M⁻¹ s⁻¹ and the “Hu LTBP1-proTGFβ1 Koff” value came to 6e-05 s⁻¹. In the assay with huLTBP3 proTGFβ1, the “Hu LTBP3-proTGFβ1 Kon” value turned out to be 410000 M⁻¹ s⁻¹ and the “Hu LTBP3-proTGFβ1 Koff” value is 6e-05 s⁻¹.

B2: SR-AB41 Fab (antibody, V domains shown)
VH: QVQLVESGGGVVQPGRSLRLSCAASGFTFRSYVMHWVRQAPGKGLEWVAVISHEGSLKYYADSVKGRFTISRDNSKNTLYLQMNSLRAEDTAVYYCARPRIAARRGGFGYWGQGTLVTVSS
VL: NFMLTQPHSVSESPGKTVTISCTRSSGNIDNNYVQWYQQRPGSSPTTVIYEDNQRPSGVPDRFSGSIDSSSNSASLTISGLKTEDEADYYCQSYDYDNQAVVFGGGTKLTVL
For orientation: IC50 means the concentration that gives 50% inhibition. In assay [1], B2 came in with an IC50 of 0.486 nM.

B3: SR-AB51 Fab (antibody, V domains shown)
VH: QVQLVESGGGVVQPGRSLRLSCAASGFTFRSYVMHWVRQAPGKGLEWVAVISHEGSGKYYADSVKGRFTISRDNSKNTLYLQMNSLRAEDTAVYYCARPRIAARRGGFGTWGQGTLVTVSS
VL: NFMLTQPHSVSESPGKTVTISCTRSSGNIDYNYVQWYQQRPGSSPTTVIYEDNVRPSGVPDRFSGSIDSSSNSASLTISGLKTEDEADYYCQSYDYDNQAVVFGGGTKLTVL
Take B3: in assay [1], the IC50 was 0.535 nM.

B4: SR-AB61 Fab (antibody, V domains shown)
VH: QVQLVESGGGVVQPGRSLRLSCAASGFTFRSYVMHWVRQAPGKGLEWVAVISHEGSGKYYADSVKGRFTISRDNSKNTLYLQMNSLRAEDTAVYYCALPRIAARRGGFGTWGQGTLVTVSS
VL: NFMLTQPHSVSESPGKTVTISCTRSSGNIDYNYVQWYQQRPGSSPTTVIYEDNVRPSGVPDRFSGSIDSSSNSASLTISGLKTEDEADYYCQGYDWDTQGVVFGGGTKLTVL
In assay [1], B4 came in with a concentration for half-maximal inhibition (IC50) of 0.47 nM. This IC50 and that of the molecule before are within 1.5-fold of each other.

B5: SR-AB46 Fab (antibody, V domains shown)
VH: QVQLVESGGGVVQPGRSLRLSCAASGFTFRSYVMHWVRQAPGKGLEWVAVISHEGSGKYYADSVKGRFTISRDNSKNTLYLQMNSLRAEDTAVYYCARPRIAARRGGFGSWGQGTLVTVSS
VL: NFMLTQPHSVSESPGKTVTISCTRSSGNIDYNYVQWYQQRPGSSPTTVIYEDNVRPSGVPDRFSGSIDSSSNSASLTISGLKTEDEADYYCQSYDSDNQRVVFGGGTKLTVL
The molecule B5 yielded an IC50 in assay [1] of 0.495 nM. The IC50 values of the last two molecules are within 1.5-fold of each other.

B6: SR-AB42 Fab (antibody, V domains shown)
VH: QVQLVESGGGVVQPGRSLRLSCAASGFTFRSYVMHWVRQAPGKGLEWVAVISHEGSLKYYADSVKGRFTISRDNSKNTLYLQMNSLRAEDTAVYYCARPRIAARRGGFGYWGQGTLVTVSS
VL: NFMLTQPHSVSESPGKTVTISCTRSSGNIDNNYVQWYQQRPGSSPTTVIYEDNQRPSGVPDRFSGSIDSSSNSASLTISGLKTEDEADYYCQSYDYDTQGVVFGGGTKLTVL
B6 gave an IC50 in assay [1] of 0.667 nM.

B7: SR-AB60 Fab (antibody, V domains shown)
VH: QVQLVESGGGVVQPGRSLRLSCAASGFTFRSYVMHWVRQAPGKGLEWVAVISHEGSGKYYADSVKGRFTISRDNSKNTLYLQMNSLRAEDTAVYYCALPRIAARRGGFGTWGQGTLVTVSS
VL: NFMLTQPHSVSESPGKTVTISCTRSSGNIDYNYVQWYQQRPGSSPTTVIYEDNVRPSGVPDRFSGSIDSSSNSASLTISGLKTEDEADYYCQSYDYDTQGVVFGGGTKLTVL
For the molecule B7, half-maximal inhibition in assay [1] (IC50) was put at 0.742 nM.

B8: SR-AB49 Fab (antibody, V domains shown)
VH: QVQLVESGGGVVQPGRSLRLSCAASGFTFRSYVMHWVRQAPGKGLEWVAVISHEGSGKYYADSVKGRFTISRDNSKNTLYLQMNSLRAEDTAVYYCARPRIAARRGGFGSWGQGTLVTVSS
VL: NFMLTQPHSVSESPGKTVTISCTRSSGNIDYNYVQWYQQRPGSSPTTVIYEDNVRPSGVPDRFSGSIDSSSNSASLTISGLKTEDEADYYCQGYDWDTQGVVFGGGTKLTVL
For B8, the IC50 in assay [1] is 1.02 nM.

B9: SR-AB48 Fab (antibody, V domains shown)
VH: QVQLVESGGGVVQPGRSLRLSCAASGFTFRSYVMHWVRQAPGKGLEWVAVISHEGSGKYYADSVKGRFTISRDNSKNTLYLQMNSLRAEDTAVYYCARPRIAARRGGFGSWGQGTLVTVSS
VL: NFMLTQPHSVSESPGKTVTISCTRSSGNIDYNYVQWYQQRPGSSPTTVIYEDNVRPSGVPDRFSGSIDSSSNSASLTISGLKTEDEADYYCQSYDYDTQGVVFGGGTKLTVL
The molecule B9 gave a half-inhibitory concentration (IC50) in assay [1] of 0.523 nM.

B10: SR-AB55 Fab (antibody, V domains shown)
VH: QVQLVESGGGVVQPGRSLRLSCAASGFTFRSYVMHWVRQAPGKGLEWVAVISHEGSGKYYADSVKGRFTISRDNSKNTLYLQMNSLRAEDTAVYYCALPRIAARRGGFGSWGQGTLVTVSS
VL: NFMLTQPHSVSESPGKTVTISCTRSSGNIDYNYVQWYQQRPGSSPTTVIYEDNVRPSGVPDRFSGSIDSSSNSASLTISGLKTEDEADYYCQSYDYDNQAVVFGGGTKLTVL
The molecule B10 yielded an IC50 in assay [1] of 0.536 nM.

B11: SR-AB45: cycle 3 light chain-optimized antibody, lineage SR-AB23; CDRs SEQ ID NO: 184-189 (antibody, V domains shown)
VH: QVQLVESGGGVVQPGRSLRLSCAASGFTFRSYVMHWVRQAPGKGLEWVAVISHEGSLKYYADSVKGRFTISRDNSKNTLYLQMNSLRAEDTAVYYCARPRIAARRGGFGYWGQGTLVTVSS
VL: NFMLTQPHSVSESPGKTVTISCTRSSGAIDDNYVQWYQQRPGSSPTTVIYEDFQRPSGVPDRFSGSIDSSSNSASLTISGLKTEDEADYYCQSYDDDLQGVVFGGGTKLTVL
In the case of B11, in the assay with huLTBP1 proTGFβ1, the “Hu LTBP1-proTGFβ1 Kon” value came out at 310000 M⁻¹ s⁻¹ and the “Hu LTBP1-proTGFβ1 Koff” value came out at 6e-05 s⁻¹. In the assay with huLTBP3 proTGFβ1, the “Hu LTBP3-proTGFβ1 Kon” value worked out at 491000 M⁻¹ s⁻¹ and the “Hu LTBP3-proTGFβ1 Koff” value is 6e-05 s⁻¹.

B12: SR-AB57 Fab (antibody, V domains shown)
VH: QVQLVESGGGVVQPGRSLRLSCAASGFTFRSYVMHWVRQAPGKGLEWVAVISHEGSGKYYADSVKGRFTISRDNSKNTLYLQMNSLRAEDTAVYYCALPRIAARRGGFGSWGQGTLVTVSS
VL: NFMLTQPHSVSESPGKTVTISCTRSSGNIDYNYVQWYQQRPGSSPTTVIYEDNVRPSGVPDRFSGSIDSSSNSASLTISGLKTEDEADYYCQGYDWDTQGVVFGGGTKLTVL
In assay [1], B12 had an IC50 of 0.775 nM.
